# Laboratory results reported in patent publication US20140087995A1 (published 2014).
# Numbered stars: 1 amine (or outer) side, 2 acyl side, 3 side chain; on linkers, the order of the positions; unused ones are H or OH. Bridge positions count the residues as written; N and C are the ends. Side chains are listed from the residue outwards. Ends that are not written are not given here. * marks the point of attachment. C20 diacid = O=C(O)CCCCCCCCCCCCCCCCCCC(=O)*; C18 diacid = O=C(O)CCCCCCCCCCCCCCCCC(=O)*; C16 diacid = O=C(O)CCCCCCCCCCCCCCC(=O)*; γGlu = O=C(O)[C@H](CCC(=O)[*:2])N[*:1]; C14 diacid = O=C(O)CCCCCCCCCCCCC(=O)*
# T1: human calcitonin receptor (human, UniProt P30988 25-474)
# T1 construct: whole, on cells; Assay used cell membranes, not intact cells; also called hCTR; hCT
# T1 sequence (looked up): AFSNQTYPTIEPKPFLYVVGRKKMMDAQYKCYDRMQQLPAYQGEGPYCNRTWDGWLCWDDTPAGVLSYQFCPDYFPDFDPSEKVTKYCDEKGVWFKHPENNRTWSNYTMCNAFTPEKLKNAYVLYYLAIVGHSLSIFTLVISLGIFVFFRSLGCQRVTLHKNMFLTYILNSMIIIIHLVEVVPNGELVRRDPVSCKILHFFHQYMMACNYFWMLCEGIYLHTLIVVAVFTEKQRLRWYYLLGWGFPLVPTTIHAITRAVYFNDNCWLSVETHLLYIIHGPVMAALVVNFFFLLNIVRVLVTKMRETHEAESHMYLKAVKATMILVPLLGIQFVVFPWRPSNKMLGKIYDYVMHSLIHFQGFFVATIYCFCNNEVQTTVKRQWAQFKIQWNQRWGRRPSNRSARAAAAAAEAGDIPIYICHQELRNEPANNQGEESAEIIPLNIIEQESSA
# T2: human amylin receptor (amylin 3(a) receptor: human calcitonin receptor with RAMP-3) (human, UniProt P30988 25-474; O60896 24-148)
# T2 construct: whole, on cells; Assay used cell membranes of the Amylin 3(a)/CRE-luc BHK cells, not intact cells; also called hAmylin-R; hAmylinR
# T2 sequence (looked up) 1: T1 sequence (looked up)
# T2 sequence (looked up) 2: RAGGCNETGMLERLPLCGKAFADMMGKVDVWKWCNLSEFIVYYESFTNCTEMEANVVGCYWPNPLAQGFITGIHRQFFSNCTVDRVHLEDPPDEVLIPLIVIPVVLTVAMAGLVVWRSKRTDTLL
# B1: N^ε1-[(4S)-4-carboxy-4-(13-carboxytridecanoylamino)butanoyl]-[Arg17,Pro21,Pro27,His34]-h-amylin (peptide)
# peptide: K([γGlu-C14 diacid])CNTATCATQRLANFLRHSSPNFGAIPSSTNVGHNTY-NH2
# modifications: disulfide 2-7; N-terminus assumed
# SMILES: CC[C@H](C)[C@H](NC(=O)[C@H](C)NC(=O)CNC(=O)[C@H](Cc1ccccc1)NC(=O)[C@H](CC(N)=O)NC(=O)[C@@H]1CCCN1C(=O)[C@H](CO)NC(=O)[C@H](CO)NC(=O)[C@H](Cc1c[nH]cn1)NC(=O)[C@H](CCCNC(=N)N)NC(=O)[C@H](CC(C)C)NC(=O)[C@H](Cc1ccccc1)NC(=O)[C@H](CC(N)=O)NC(=O)[C@H](C)NC(=O)[C@H](CC(C)C)NC(=O)[C@H](CCCNC(=N)N)NC(=O)[C@H](CCC(N)=O)NC(=O)[C@@H](NC(=O)[C@H](C)NC(=O)[C@@H]1CSSC[C@H](NC(=O)[C@@H](N)CCCCNC(=O)CC[C@H](NC(=O)CCCCCCCCCCCCC(=O)O)C(=O)O)C(=O)N[C@@H](CC(N)=O)C(=O)N[C@@H]([C@@H](C)O)C(=O)N[C@@H](C)C(=O)N[C@@H]([C@@H](C)O)C(=O)N1)[C@@H](C)O)C(=O)N1CCC[C@H]1C(=O)N[C@@H](CO)C(=O)N[C@@H](CO)C(=O)N[C@H](C(=O)N[C@@H](CC(N)=O)C(=O)N[C@H](C(=O)NCC(=O)N[C@@H](Cc1c[nH]cn1)C(=O)N[C@@H](CC(N)=O)C(=O)N[C@H](C(=O)N[C@@H](Cc1ccc(O)cc1)C(N)=O)[C@@H](C)O)C(C)C)[C@@H](C)O
# B2: N^ε1-[(4S)-4-carboxy-4-(17-carboxyheptadecanoylamino)butanoyl]-[Arg17,Pro21,Pro27,His34]-h-amylin (peptide)
# peptide: K([γGlu-C18 diacid])CNTATCATQRLANFLRHSSPNFGAIPSSTNVGHNTY-NH2
# modifications: disulfide 2-7; N-terminus assumed
# SMILES: CC[C@H](C)[C@H](NC(=O)[C@H](C)NC(=O)CNC(=O)[C@H](Cc1ccccc1)NC(=O)[C@H](CC(N)=O)NC(=O)[C@@H]1CCCN1C(=O)[C@H](CO)NC(=O)[C@H](CO)NC(=O)[C@H](Cc1c[nH]cn1)NC(=O)[C@H](CCCNC(=N)N)NC(=O)[C@H](CC(C)C)NC(=O)[C@H](Cc1ccccc1)NC(=O)[C@H](CC(N)=O)NC(=O)[C@H](C)NC(=O)[C@H](CC(C)C)NC(=O)[C@H](CCCNC(=N)N)NC(=O)[C@H](CCC(N)=O)NC(=O)[C@@H](NC(=O)[C@H](C)NC(=O)[C@@H]1CSSC[C@H](NC(=O)[C@@H](N)CCCCNC(=O)CC[C@H](NC(=O)CCCCCCCCCCCCCCCCC(=O)O)C(=O)O)C(=O)N[C@@H](CC(N)=O)C(=O)N[C@@H]([C@@H](C)O)C(=O)N[C@@H](C)C(=O)N[C@@H]([C@@H](C)O)C(=O)N1)[C@@H](C)O)C(=O)N1CCC[C@H]1C(=O)N[C@@H](CO)C(=O)N[C@@H](CO)C(=O)N[C@H](C(=O)N[C@@H](CC(N)=O)C(=O)N[C@H](C(=O)NCC(=O)N[C@@H](Cc1c[nH]cn1)C(=O)N[C@@H](CC(N)=O)C(=O)N[C@H](C(=O)N[C@@H](Cc1ccc(O)cc1)C(N)=O)[C@@H](C)O)C(C)C)[C@@H](C)O
# B3: N^ε1-[(4S)-4-carboxy-4-(19-carboxynonadecanoylamino)butanoyl]-[Ala14,Arg17,Pro21,Pro27,His34]-h-amylin (peptide)
# peptide: K([γGlu-C20 diacid])CNTATCATQRLAAFLRHSSPNFGAIPSSTNVGHNTY-NH2
# modifications: disulfide 2-7; N-terminus assumed
# SMILES: CC[C@H](C)[C@H](NC(=O)[C@H](C)NC(=O)CNC(=O)[C@H](Cc1ccccc1)NC(=O)[C@H](CC(N)=O)NC(=O)[C@@H]1CCCN1C(=O)[C@H](CO)NC(=O)[C@H](CO)NC(=O)[C@H](Cc1c[nH]cn1)NC(=O)[C@H](CCCNC(=N)N)NC(=O)[C@H](CC(C)C)NC(=O)[C@H](Cc1ccccc1)NC(=O)[C@H](C)NC(=O)[C@H](C)NC(=O)[C@H](CC(C)C)NC(=O)[C@H](CCCNC(=N)N)NC(=O)[C@H](CCC(N)=O)NC(=O)[C@@H](NC(=O)[C@H](C)NC(=O)[C@@H]1CSSC[C@H](NC(=O)[C@@H](N)CCCCNC(=O)CC[C@H](NC(=O)CCCCCCCCCCCCCCCCCCC(=O)O)C(=O)O)C(=O)N[C@@H](CC(N)=O)C(=O)N[C@@H]([C@@H](C)O)C(=O)N[C@@H](C)C(=O)N[C@@H]([C@@H](C)O)C(=O)N1)[C@@H](C)O)C(=O)N1CCC[C@H]1C(=O)N[C@@H](CO)C(=O)N[C@@H](CO)C(=O)N[C@H](C(=O)N[C@@H](CC(N)=O)C(=O)N[C@H](C(=O)NCC(=O)N[C@@H](Cc1c[nH]cn1)C(=O)N[C@@H](CC(N)=O)C(=O)N[C@H](C(=O)N[C@@H](Cc1ccc(O)cc1)C(N)=O)[C@@H](C)O)C(C)C)[C@@H](C)O
# notes: also called compound 93
# B4: N^ε1-[(4S)-4-carboxy-4-(15-carboxypentadecanoylamino)butanoyl]-[Arg17,Pro21,Pro27,His34]-h-amylin (peptide)
# peptide: K([γGlu-C16 diacid])CNTATCATQRLANFLRHSSPNFGAIPSSTNVGHNTY-NH2
# modifications: disulfide 2-7; N-terminus assumed
# SMILES: CC[C@H](C)[C@H](NC(=O)[C@H](C)NC(=O)CNC(=O)[C@H](Cc1ccccc1)NC(=O)[C@H](CC(N)=O)NC(=O)[C@@H]1CCCN1C(=O)[C@H](CO)NC(=O)[C@H](CO)NC(=O)[C@H](Cc1c[nH]cn1)NC(=O)[C@H](CCCNC(=N)N)NC(=O)[C@H](CC(C)C)NC(=O)[C@H](Cc1ccccc1)NC(=O)[C@H](CC(N)=O)NC(=O)[C@H](C)NC(=O)[C@H](CC(C)C)NC(=O)[C@H](CCCNC(=N)N)NC(=O)[C@H](CCC(N)=O)NC(=O)[C@@H](NC(=O)[C@H](C)NC(=O)[C@@H]1CSSC[C@H](NC(=O)[C@@H](N)CCCCNC(=O)CC[C@H](NC(=O)CCCCCCCCCCCCCCC(=O)O)C(=O)O)C(=O)N[C@@H](CC(N)=O)C(=O)N[C@@H]([C@@H](C)O)C(=O)N[C@@H](C)C(=O)N[C@@H]([C@@H](C)O)C(=O)N1)[C@@H](C)O)C(=O)N1CCC[C@H]1C(=O)N[C@@H](CO)C(=O)N[C@@H](CO)C(=O)N[C@H](C(=O)N[C@@H](CC(N)=O)C(=O)N[C@H](C(=O)NCC(=O)N[C@@H](Cc1c[nH]cn1)C(=O)N[C@@H](CC(N)=O)C(=O)N[C@H](C(=O)N[C@@H](Cc1ccc(O)cc1)C(N)=O)[C@@H](C)O)C(C)C)[C@@H](C)O
# B5: N^ε1-[(4S)-4-carboxy-4-(19-carboxynonadecanoylamino)butanoyl]-[Ala14,Arg17,Pro21,Pro27,Pro34]-h-amylin (peptide)
# peptide: K([γGlu-C20 diacid])CNTATCATQRLAAFLRHSSPNFGAIPSSTNVGPNTY-NH2
# modifications: disulfide 2-7; N-terminus assumed
# SMILES: CC[C@H](C)[C@H](NC(=O)[C@H](C)NC(=O)CNC(=O)[C@H](Cc1ccccc1)NC(=O)[C@H](CC(N)=O)NC(=O)[C@@H]1CCCN1C(=O)[C@H](CO)NC(=O)[C@H](CO)NC(=O)[C@H](Cc1c[nH]cn1)NC(=O)[C@H](CCCNC(=N)N)NC(=O)[C@H](CC(C)C)NC(=O)[C@H](Cc1ccccc1)NC(=O)[C@H](C)NC(=O)[C@H](C)NC(=O)[C@H](CC(C)C)NC(=O)[C@H](CCCNC(=N)N)NC(=O)[C@H](CCC(N)=O)NC(=O)[C@@H](NC(=O)[C@H](C)NC(=O)[C@@H]1CSSC[C@H](NC(=O)[C@@H](N)CCCCNC(=O)CC[C@H](NC(=O)CCCCCCCCCCCCCCCCCCC(=O)O)C(=O)O)C(=O)N[C@@H](CC(N)=O)C(=O)N[C@@H]([C@@H](C)O)C(=O)N[C@@H](C)C(=O)N[C@@H]([C@@H](C)O)C(=O)N1)[C@@H](C)O)C(=O)N1CCC[C@H]1C(=O)N[C@@H](CO)C(=O)N[C@@H](CO)C(=O)N[C@H](C(=O)N[C@@H](CC(N)=O)C(=O)N[C@H](C(=O)NCC(=O)N1CCC[C@H]1C(=O)N[C@@H](CC(N)=O)C(=O)N[C@H](C(=O)N[C@@H](Cc1ccc(O)cc1)C(N)=O)[C@@H](C)O)C(C)C)[C@@H](C)O
# notes: also called compound 94
# Target: T1, human calcitonin receptor
# Assay: SPA competition with 125I-calcitonin on membranes of BHK cells with human calcitonin receptor (Assay VII)
# In short: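 BHK hCTR membranes 35 ng/μL + SPA beads 0.05 mg/well; buffer 50 mM Hepes pH 7.4, 1 mM CaCl2, 5 mM MgCl₂, 0.1% OA, 0.02% Tween20. 120 min, 25° C., shaking. Scintillation count; IC50 by one-site binding competition.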
row,IC50 [nM],Binder
1,24.3,B1
2,22.7,B2
3,17.8,B3
4,10.8,B4
5,6.86,B5

# Target: T1, human calcitonin receptor
# Assay: ratio IC50 hCTR / IC50 hAmylin-R (reference: human amylin receptor), SPA competition assays
# In short: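 Competition binding by SPA with cell membranes (35 ng/μL) and SPA beads in 50 mM Hepes pH 7.4 with 1 mM CaCl2, 5 mM MgCl2, 0.1% OA and 0.02% Tween20. Incubated 120 min at 25 °C with shaking, then counted.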
row,Ratio hCT/hAmylin binding,Binder
1,23.5,B1
2,59.4,B2
3,101,B3
4,18.5,B4
5,46.3,B5

# Target: T2, human amylin receptor (amylin 3(a) …)
# Assay: SPA competition with 125I-rat amylin on membranes of BHK cells with human calcitonin receptor and RAMP-3 (Assay V)
# In short: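 SPA beads with BHK Amylin 3(a)/CRE-luc cell membranes (35 ng/μL final) in 50 mM Hepes pH 7.4, 1 mM CaCl2, 5 mM MgCl₂, 0.1% OA, 0.02% Tween20.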
row,IC50 [nM],Binder
1,1.04,B1
2,0.382,B2
3,0.176,B3
4,0.58,B4
5,0.148,B5
